T1: recombinant human MCP-2 (human, UniProt P80075 24-99)
T1 construct: also called rhMCP-2
T1 sequence (looked up): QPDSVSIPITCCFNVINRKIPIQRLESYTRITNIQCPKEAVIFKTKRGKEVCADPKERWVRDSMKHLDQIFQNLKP

T2: human GRO/MGSA (human, UniProt P09341 35-107)
T2 construct: also called hGRO/MGSA; GRO-alpha
T2 sequence (looked up): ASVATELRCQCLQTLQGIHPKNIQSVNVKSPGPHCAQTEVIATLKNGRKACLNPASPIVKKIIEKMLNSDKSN

T3: human MIP-1-alpha (human, UniProt P10147 24-92, limits assumed)
T3 construct: also called hMIP-1-alpha
T3 sequence (looked up): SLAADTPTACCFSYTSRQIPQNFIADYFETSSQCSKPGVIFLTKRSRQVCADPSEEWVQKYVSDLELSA

T4: human RANTES (human, UniProt P13501 24-91)
T4 construct: also called hRANTES
T4 sequence (looked up): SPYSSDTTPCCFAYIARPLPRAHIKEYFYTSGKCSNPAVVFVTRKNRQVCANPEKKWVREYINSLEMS


Assays:
[1] = molecular target: T5, human monocyte chemo-attractant protein-1 (MCP-1) (human, UniProt P13500 24-99); assay: ELISA, coated antigen
T5 construct: 76-residue recombinant protein from E. coli, bought (PeproTech); also called hMCP-1(MCAF); human MCP-1
T5 sequence (P13500 24-99): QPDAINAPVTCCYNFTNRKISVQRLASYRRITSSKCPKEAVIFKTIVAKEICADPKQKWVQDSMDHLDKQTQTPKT
Procedure: (§1) Determining cross-reactivity of anti-MCP-1 antibodies with other chemokines. ELISA plates (Fisher Cat. No. 12-565-136) were coated with 50 μl/well of MCP-1, MCP-2, MCP-3, MCP-4, RANTES, GRO-alpha, MIP-1 alpha, eotaxin, rat MCP-1 and mouse JE (2 μg/ml) in coating buffer (0.1 M carbonate buffer, pH 9.6, NaHCO₃ 8.4 g/L, then incubated at 4° C. overnight. After incubation, the plates were washed with washing buffer (0.05% Tween 20 in PBS) three times. 200 μL/well blocking buffer (0.5% BSA, 0.1% Tween 20, 0.01% Thimerosal in 1×PBS) were added and the plates incubated at room temperature for 1 hour. After incubation, the plates were washed with washing buffer three times. 50 μL/well of hybridoma supernatants, and positive and negative controls (positive control was anti-MCP-1 antibody purchased from R&D Sciences, and negative control was an antibody to Keyhole Limpet Hemocyanin produced at Abgenix) were added and the plates incubated at room temperature for 2 hours. After incubation, the plates were washed three times with washing buffer. […] After incubation, the plates were washed three times with washing buffer and 100 μL/well of TMB (BioFX Lab. Cat. #TMSK-0 100-01) was added and the plates allowed to develop for about 10 minutes.

[2] = molecular target: T6, recombinant mouse JE/MCP-1 (mouse, UniProt P10148 24-148); assay: ELISA, coated antigen
T6 construct: also called rmJE/MCP-1
Procedure: as §1

[3] = molecular target: rat MCP-1 (rat, UniProt P14844 24-148); assay: ELISA, coated antigen
rat MCP-1, sequence (P14844 24-148 limits assumed): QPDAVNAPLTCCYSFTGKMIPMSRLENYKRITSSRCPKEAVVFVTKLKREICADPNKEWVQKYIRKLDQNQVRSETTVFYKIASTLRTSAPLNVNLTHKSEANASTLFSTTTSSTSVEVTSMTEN
Procedure: as §1

[4] = molecular target: T1, recombinant human MCP-2; assay: ELISA, coated antigen
Procedure: as §1

[5] = molecular target: T7, recombinant human MCP-3 (human, UniProt P80098 24-99); assay: ELISA, coated antigen
T7 construct: also called rhMCP-3
T7 sequence (P80098 24-99 limits assumed): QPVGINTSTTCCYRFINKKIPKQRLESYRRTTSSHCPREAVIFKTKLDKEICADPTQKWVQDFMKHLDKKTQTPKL
Procedure: as §1

[6] = molecular target: T8, recombinant human MCP-4 (human, UniProt Q99616 24-98, limits assumed); assay: ELISA, coated antigen
T8 construct: also called rhMCP-4
Procedure: as §1

[7] = molecular target: T2, human GRO/MGSA; assay: ELISA, coated antigen
Procedure: as §1

[8] = molecular target: T3, human MIP-1-alpha; assay: ELISA, coated antigen
Procedure: as §1

[9] = molecular target: T4, human RANTES; assay: ELISA, coated antigen
Procedure: as §1

[10] = molecular target: T9, human eotaxin (human, UniProt P51671 24-97); assay: ELISA, coated antigen
T9 construct: also called hEotaxin
Procedure: as §1

[11] = molecular target: T5, human monocyte chemo-attractant …; assay: cell-based or functional assay
[12] = molecular target: T5, human monocyte chemo-attractant …; assay: ELISA, hybridoma supernatant on coated MCP-1
Procedure: Selection of candidate antibodies for ELISA. After 14 days of culture, hybridoma supernatants were screened for MCP-1-specific monoclonal antibodies. The ELISA plates (Fisher, Cat. No. 12-565-136) were coated with 50 μl/well of MCP-1 (2 μg/mL) in Coating Buffer (0.1 M Carbonate Buffer, pH 9.6, NaHCO₃8.4 g/L), then incubated at 4° C. overnight. After incubation, the plates were washed with Washing Buffer (0.05% Tween 20 in PBS) three times. 200 μl/well Blocking Buffer (0.5% BSA, 0.1% Tween 20, 0.01% Thimerosal in 1× PBS) were added and the plates incubated at room temperature for 1 hour. After incubation, the plates were washed with Washing Buffer three times. 50 μL/well of hybridoma supernatants, and positive and negative controls were added and the plates incubated at room temperature for 2 hours.
The positive control used throughout was XMG2 MCP-1 Group 1, footpad N160-7 and the negative control was XMG2 KLH Group 1, footpad L627-6. After incubation, the plates were washed three times with Washing Buffer. […] In the secondary screen, three sets of samples (positives in first screening) were screened, one set for hIgG detection, one set for hKappa detection, and one set for hlambda detection. After incubation, the plates were washed three times with Washing Buffer. 100 μL/well of TMB (BioFX Lab. Cat. #TMSK-0100-01) were added and the plates allowed to develop for about 10 minutes (until negative control wells barely started to show color), then 50 μL/well stop solution (TMB Stop Solution (BioFX Lab. Cat. #STPR-0100-01) were added and the plates read on an ELISA plate reader at wavelength 450 nm. The OD readings from the positive wells are presented in Table 9.

Binder | ELISA OD [1] [OD450] | ELISA OD [2] [OD450] | ELISA OD [3] [OD450] | ELISA OD [4] [OD450] | ELISA OD [5] [OD450] | ELISA OD [6] [OD450] | ELISA OD [7] [OD450] | ELISA OD [8] [OD450] | ELISA OD [9] [OD450] | ELISA OD [10] [OD450] | IC50 Ca++ Flux [11] [µg/mL] | IC50 Chemotaxis [11] [µg/mL] | ELISA OD-MCP-1 [12] [OD450]
anti-MCP-1 mAb 1.10.1 (antibody, V domains shown) VH: QVQLVQSGAEVKKPGASVKVSCKVSGYTLTELSMHWVRQAPGKGLEWMGGFDPEDGETIYAQKFQGRVTMTEDTSTDTAYMELSSLRSEDTAVYYCATNEFWSGYFDYWGQGTLVTVSS VL: not shown | 1.26 | 0.041 | 0.059 | 0.04 | 0.047 | 0.052 | 0.043 | 0.043 | 0.042 | 0.05 | 0.18 | 1.2 | 3.85
anti-MCP-1 mAb 1.11.1 (antibody, V domains shown) VH: QVQVVQSGAEVKNPGASVKVSCKVSGSTLTELSMHWVRQAPGKGLEWMGGFDPEDGETIYAQKFQGRVTMTEDTSTDTVYMELSSLRSEDTAVYYCATNDFWSGYFDYWGQGTLVTVSS VL: DIVMTQSPDSLAVSLGERATITCKSSQTVLYSSNNKNYLVWYQQKSGQPPKLLIHWASIRESGVPDRFSGSGSGTDFTLTISSLQAEDVAVYYCQQYYSSPWTFGQGTKVEIKR | 1.34 | 0.041 | 0.052 | 0.041 | 0.043 | 0.043 | 0.042 | 0.042 | 0.042 | 0.049 | 0.098 | 0.81 | 3.9
anti-MCP-1 mAb 1.2.1 (antibody, V domains shown) VH: QVQLVQSGAEVKKPGASVKVSCKVSGYTFTELSMHWVRQAPGKGLEWMGGFDPEDGETSYAQKFRGRVTMTEDTSTDTAHMELSSLRSEDTAVYYCATNDFWSGYFDYWGQGTLVTVSS VL: DIQMTQSPSSVSASVGDRVTITCRASQGIDIYLAWYQQKPGKAPKLLINAASSLQNGVPSRFGGSGSGTDFTLTISGLQPEDFATYYCQLTYFFPWTFGQGTKVEIKR | 1.16 | 0.041 | 0.044 | 0.056 | 0.048 | 0.055 | 0.044 | 0.04 | 0.04 | 0.044 | 0.18 | 0.24 | 3.47
anti-MCP-1 mAb 1.12.1 (antibody, V domains shown) VH: QVQLVQSGAEVKKPGASVKVSCKVSGYTLTELSMHWVRQAPGKGLEWMGGFDPEDGETIYAQKFQGRVTMTEDTSTDTAYMELSSLRSEDTAVYYCATNDFWSGYYNYWGQGTLVTVSS VL: not shown | 0.933 | 0.042 | 0.062 | 0.042 | 0.046 | 0.044 | 0.046 | 0.046 | 0.046 | 0.044 | 0.13 | 0.35 | 4
anti-MCP-1 mAb 1.13.1 (antibody, V domains shown) VH: QVQLVQSGAEVKKPGASVKVSCKVSGHTLTELSMHWVRQAPGKGLEWMGGFDPEDDETIYAQKFQDRVTMTEDTSTDTAYMELSSLRSEDTAVYYCATNDFWSGYFDCWGQGTLVTVSS VL: DIVLTQSPDSLAVCLGERATINCKSSQSVLYSPNNKNFLVWYQQRPGQPPKLLIYWASTRESGVPDRFSGSGSGTDFTLTISSLQAEDVAVYYCQQYYSSPWTFGQGTKVEIKR | 1.16 | 0.043 | 0.06 | 0.046 | 0.047 | 0.045 | 0.046 | 0.042 | 0.046 | 0.044 | 0.11 | 0.5 | 4

Second part, the binder after the results:

ELISA OD [1] [OD450] | ELISA OD [2] [OD450] | ELISA OD [3] [OD450] | ELISA OD [4] [OD450] | ELISA OD [5] [OD450] | ELISA OD [6] [OD450] | ELISA OD [7] [OD450] | ELISA OD [8] [OD450] | ELISA OD [9] [OD450] | ELISA OD [10] [OD450] | IC50 Ca++ Flux [11] [µg/mL] | IC50 Chemotaxis [11] [µg/mL] | ELISA OD-MCP-1 [12] [OD450] | Binder
1.13 | 0.042 | 0.062 | 0.042 | 0.046 | 0.044 | 0.046 | 0.046 | 0.046 | 0.042 | 0.41 | 0.58 | 2.06 | anti-MCP-1 mAb 1.14.1 (antibody, V domains shown) VH: QVQAEQSGPGLVKPSQTLSLTCAISGDSVSSYSAAWNWIRQSPSRGLEWLGRTYYRSKWYSDHAVSVRSRITIYPDTSKNQFSLQLNSVTPEDTAVYYCARDRISGTYVGMDVWGQGTTVTVSS VL: not shown
0.71 | 0.054 | 0.045 | 0.845 | 0.167 | 0.042 | 0.042 | 0.043 | 0.04 | 0.306 | 0.3 | 0.25 | 3.63 | anti-MCP-1 mAb 3.10.1 (antibody, V domains shown) VH: QVQLVQSGAEVKKPGASVKVSCKVSGYTLTELSMHWVRQAPGKGLEWMGGFDPEDGETIYAQKFQGRVMMTEDTSTDTAFMDLSSLRSEDTAVYYCATDDMLTPHYLYFGMDVWGQGTTVTVSS VL: DIQMTQSPSSLSASVGDRVTITCRASQGIRNDLGWYQQKPGKAPKRLIYATSSLQSGVPSRFSGSGSGTEFTLTISSLQPEDFATYYCLQHNTYPFTFGPGTKVDIKR
1.15 | 0.044 | 0.053 | 0.042 | 0.05 | 0.047 | 0.065 | 0.055 | 0.046 | 0.048 | 0.24 | 0.51 | 3.86 | anti-MCP-1 mAb 3.4.1 (antibody, V domains shown) VH: QVQLVQSGAEVKKPGASVKVSCKVSGYTLTELSMHWVRQAPGKGLEWMGGFDPEDGETMYAQKFQGRVTMTEDTSTDTAYMELSSLRSEDTAVYYCATDDFWSGYFDYWGQGTLVTVSS VL: DIVMTQSPDSLAVSLDERATINCKSSQSVLYSPNQKNYLVWYQQKPGQPPKLLLYWASIRESGVPDRFSGSGSGTDFTLTISSLQAEDVAVYYCQQSYFTPWTFGQGTKVEIKR
1.23 | 0.044 | 0.058 | 0.04 | 0.045 | 0.045 | 0.049 | 0.043 | 0.04 | 0.043 | 0.18 | 0.29 | 0.998 | anti-MCP-1 mAb 1.18.1 (antibody, human IgG2, kappa, V domains shown) VH: QVQLVQSGAEVKKPGASVKVSCKVSGYTLTELSMHWVRQAPGKGLEWMGGFDPEDGETIYAQKFQGRVTMTEDTSTDTVYMELSSLRSEDTAMYYCATREFWTGYFDHWGQGTLVTVSS VL: not shown

Source: patent publication US20050058639A1 (AstraZeneca / MedImmune, published 2005)
